For orientation: Tm means the temperature at which the thermal transition is half complete.

B1: NADP-dependent isopropanol dehydrogenase, P25984 (parent)
chain: MKGFAMLGINKLGWIEKERPVAGSYDAIVRPLAVSPCTSDIHTVFEGALGDRKNMILGHEAVGEVVEVGSEVKDFKPGDRVIVPCTTPDWRSLEVQAGFQQHSNGMLAGWKFSNFKDGVFGEYFHVNDADMNLAILPKDMPLENAVMITDMMTTGFHGAELADIQMGSSVVVIGIGAVGLMGIAGAKLRGAGRIIGVGSRPICVEAAKFYGATDILNYKNGHIVDQVMKLTNGKGVDRVIMAGGGSETLSQAVSMVKPGGIISNINYHGSGDALLIPRVEWGCGMAHKTIKGGLCPGGRLRAEMLRDMVVYNRVDLSKLVTHVYHGFDHIEEALLLMKDKPKDLIKAVVIL

The data set covers variants of B1. As to conditions: Clostridium beijerinckii; pH 8.25; Thermal; DSC; Sodium phosphate 25 mM; NaCl 1 M; reversible: yes; structure 1KEV; whole UniProt chain shown.

T149P: the Tm is 65 °C and the “change of melting temperature, mutant - wild type (higher = more stable)” value (shortened to “change of melting temperature, mutant”) was -1 °C.

Consider H222P, for which the Tm amounted to 59.5 °C and the “change of melting temperature, mutant” value was -6.5 °C.

Regarding A22P, the Tm came out at 66.7 °C and the “change of melting temperature, mutant” value came to 0.7 °C.

Take A177P: the Tm is 66.5 °C and the “change of melting temperature, mutant” value was 0.5 °C.

As to A347P, the Tm was 68.6 °C and the “change of melting temperature, mutant” value came out at 2.6 °C.

In the case of L275P, the Tm was found to be 63.7 °C and the “change of melting temperature, mutant” value is -2.3 °C.

S24P L316P: the Tm is 77.1 °C and the “change of melting temperature, mutant” value came out at 11.1 °C.

For the variant S24P, the Tm worked out at 69.9 °C and the “change of melting temperature, mutant” value turned out to be 3.9 °C.

On to L316P, for which the Tm worked out at 76.8 °C and the “change of melting temperature, mutant” value came to 10.8 °C.

The values above are taken from FireProtDB (doi:10.1002/pro.5560070509).
